B1: minF1; the commonest letter at each place (parent)
chain: GAGACCGCAACTGAAAAGTTGTTATCAGAAATGGATGGGTTGAATTTCTGCACGTAGAAGCAAAAGGC

Variants of: B1
Test: fraction ligated after 30 min (ligated reads / total reads); higher = more ligase activity
Conditions: with F1*subA RNA substrate (template-directed ligation), 42 °C
Outline: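 RNAs for minimized ligase ribozyme variants were transcribed with T7 from PCR-amplified oligo-pool templates and purified on gels. Ligated and unligated species were resolved on gels, converted to cDNA with barcoded primers, and read on a MiSeq with core bases filtered at quality ≥30. Fraction ligated per variant is the ratio of ligated reads to total reads.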

Variant | fraction ligated
A29C A43G | 0.0549
A29C A43T | 0.0813
A29C A44C | 0.607
A29C A44G | 0.748
A29C A44T | 0.705
A29C G33A | 0.784
A29C G33C | 0.743
A29C G33T | 0.526
A29C G34A | 0.042
A29C G34C | 0.00225
A29C G34T | 0.00671
A29C G37A | 0.00482
A29C G37C | 0.00528
A29C G37T | 0.0129
A29C G42A | 0.283
A29C G42C | 0.00616
A29C G42T | 0.0826
A29C T32A | 0.0419
A29C T32C | 0.0191
A29C T32G | 0.0113
A29C T36A | 0.0288
A29C T36C | 0.0172
A29C T36G | 0.0261
A29G | 0.827

Variant | fraction ligated
A29G A30C | 0.84
A29G A30G | 0.811
A29G A30T | 0.817
A29G A31C | 0.803
A29G A31G | 0.795
A29G A31T | 0.812
A29G A35C | 0.0139
A29G A35G | 0.204
A29G A35T | 0.023
A29G A43C | 0.0987
A29G A43G | 0.0803
A29G A43T | 0.0936
A29G A44C | 0.649
A29G A44G | 0.753
A29G A44T | 0.76
A29G G33A | 0.8
A29G G33C | 0.709
A29G G33T | 0.516
A29G G34A | 0.0509
A29G G34C | 0.00249
A29G G34T | 0.00809
A29G G37A | 0.0118
A29G G37C | 0.0058
A29G G37T | 0.0206

Variant | fraction ligated
A29G G42A | 0.28
A29G G42C | 0.00737
A29G G42T | 0.096
A29G T32A | 0.0412
A29G T32C | 0.0215
A29G T32G | 0.0222
A29G T36A | 0.0285
A29G T36C | 0.0189
A29G T36G | 0.0397
A29T | 0.815
A29T A30C | 0.806
A29T A30G | 0.821
A29T A30T | 0.789
A29T A31C | 0.798
A29T A31G | 0.811
A29T A31T | 0.828
A29T A35C | 0.00991
A29T A35G | 0.153
A29T A35T | 0.0234
A29T A43C | 0.065
A29T A43G | 0.0507
A29T A43T | 0.0859
A29T A44C | 0.59
A29T A44G | 0.734

Variant | fraction ligated
A29T A44T | 0.741
A29T G33A | 0.783
A29T G33C | 0.721
A29T G33T | 0.453
A29T G34A | 0.0752
A29T G34C | 0.00521
A29T G34T | 0.00673
A29T G37A | 0.00694
A29T G37C | 0.00775
A29T G37T | 0.027
A29T G42A | 0.269
A29T G42C | 0.00612
A29T G42T | 0.0835
A29T T32A | 0.0493
A29T T32C | 0.0232
A29T T32G | 0.0161
A29T T36A | 0.0343
A29T T36C | 0.0219
A29T T36G | 0.0504
A30C | 0.806
A30C A31C | 0.714
A30C A31G | 0.806
A30C A31T | 0.771
A30C A35C | 0.00575

Variant | fraction ligated
A30C A35G | 0.159
A30C A35T | 0.01
A30C A43C | 0.0543
A30C A43G | 0.0454
A30C A43T | 0.0731
A30C A44C | 0.565
A30C A44G | 0.686
A30C A44T | 0.703
A30C G33A | 0.773
A30C G33C | 0.684
A30C G33T | 0.435
A30C G34A | 0.0885
A30C G34C | 0.00405
A30C G34T | 0.00409
A30C G37A | 0.009
A30C G37C | 0.00447
A30C G37T | 0.01
A30C G42A | 0.217
A30C G42C | 0.00724
A30C G42T | 0.0701
A30C T32A | 0.0274
A30C T32C | 0.00933
A30C T32G | 0.019
A30C T36A | 0.0266

Variant | fraction ligated
A30C T36C | 0.0174
A30C T36G | 0.0467
A30G | 0.807
A30G A31C | 0.777
A30G A31G | 0.84
A30G A31T | 0.836
A30G A35C | 0.0448
A30G A35G | 0.4
A30G A35T | 0.0595
A30G A43C | 0.179
A30G A43G | 0.14
A30G A43T | 0.188
A30G A44C | 0.735
A30G A44G | 0.833
A30G A44T | 0.809
A30G G33A | 0.821
A30G G33C | 0.805
A30G G33T | 0.672
A30G G34A | 0.0439
A30G G34C | 0.00227
A30G G34T | 0.00265
A30G G37A | 0.00857
A30G G37C | 0.00443
A30G G37T | 0.0167

Variant | fraction ligated
A30G G42A | 0.487
A30G G42C | 0.0189
A30G G42T | 0.215
A30G T32A | 0.108
A30G T32C | 0.0409
A30G T32G | 0.0298
A30G T36A | 0.0286
A30G T36C | 0.0152
A30G T36G | 0.0634
A30T | 0.823
A30T A31C | 0.801
A30T A31G | 0.785
A30T A31T | 0.818
A30T A35C | 0.0121
A30T A35G | 0.161
A30T A35T | 0.0204
A30T A43C | 0.0532
A30T A43G | 0.0459
A30T A43T | 0.0685
A30T A44C | 0.52
A30T A44G | 0.68
A30T A44T | 0.693
A30T G33A | 0.747
A30T G33C | 0.663

Variant | fraction ligated
A30T G33T | 0.387
A30T G34A | 0.0989
A30T G34C | 0.00584
A30T G34T | 0.00578
A30T G37A | 0.00958
A30T G37C | 0.0041
A30T G37T | 0.0219
A30T G42A | 0.202
A30T G42C | 0.00805
A30T G42T | 0.0705
A30T T32A | 0.0346
A30T T32C | 0.0167
A30T T32G | 0.0154
A30T T36A | 0.0264
A30T T36C | 0.0213
A30T T36G | 0.0328
A31C | 0.813
A31C A35C | 0.0149
A31C A35G | 0.199
A31C A35T | 0.0132
A31C A43C | 0.0314
A31C A43G | 0.0644
A31C A43T | 0.0946
A31C A44C | 0.655

Variant | fraction ligated
A31C A44G | 0.754
A31C A44T | 0.794
A31C G33A | 0.767
A31C G33C | 0.653
A31C G33T | 0.355
A31C G34A | 0.055
A31C G34C | 0.0027
A31C G34T | 0.00764
A31C G37A | 0.0105
A31C G37C | 0.00598
A31C G37T | 0.0153
A31C G42A | 0.279
A31C G42C | 0.00681
A31C G42T | 0.0885
A31C T32A | 0.0431
A31C T32C | 0.0181
A31C T32G | 0.0132
A31C T36A | 0.0194
A31C T36C | 0.0114
A31C T36G | 0.0226
A31G | 0.805
A31G A35C | 0.022
A31G A35G | 0.294
A31G A35T | 0.0156

Variant | fraction ligated
A31G A43C | 0.142
A31G A43G | 0.101
A31G A43T | 0.168
A31G A44C | 0.71
A31G A44G | 0.788
A31G A44T | 0.804
A31G G33A | 0.811
A31G G33C | 0.765
A31G G33T | 0.567
A31G G34A | 0.0934
A31G G34C | 0.00824
A31G G34T | 0.00852
A31G G37A | 0.00669
A31G G37C | 0.00462
A31G G37T | 0.0111
A31G G42A | 0.367
A31G G42C | 0.0118
A31G G42T | 0.126
A31G T32A | 0.073
A31G T32C | 0.00833
A31G T32G | 0.0239
A31G T36A | 0.0331
A31G T36C | 0.0127
A31G T36G | 0.0415

Variant | fraction ligated
A31T | 0.815
A31T A35C | 0.0159
A31T A35G | 0.339
A31T A35T | 0.0356
A31T A43C | 0.157
A31T A43G | 0.157
A31T A43T | 0.215
A31T A44C | 0.745
A31T A44G | 0.82
A31T A44T | 0.814
A31T G33A | 0.755
A31T G33C | 0.689
A31T G33T | 0.467
A31T G34A | 0.071
A31T G34C | 0.00659
A31T G34T | 0.0067
A31T G37A | 0.00615
A31T G37C | 0.00621
A31T G37T | 0.0157
A31T G42A | 0.495
A31T G42C | 0.0234
A31T G42T | 0.193
A31T T32A | 0.0898
A31T T32C | 0.0483

Variant | fraction ligated
A31T T32G | 0.0242
A31T T36A | 0.0236
A31T T36C | 0.0101
A31T T36G | 0.0351
T32A | 0.0612
T32A A35C | 0.00546
T32A A35G | 0.0076
T32A A35T | 0.00186
T32A A43C | 0.0118
T32A A43G | 0.0134
T32A A43T | 0.0778
T32A A44C | 0.0377
T32A A44G | 0.0595
T32A A44T | 0.163
T32A G33A | 0.032
T32A G33C | 0.0102
T32A G33T | 0.0384
T32A G34A | 0.00575
T32A G34C | 0.0031
T32A G34T | 0.00436
T32A G37A | 0.000603
T32A G37C | 0.00322
T32A G37T | 0.00279
T32A G42A | 0.00239

Variant | fraction ligated
T32A G42C | 0.00255
T32A G42T | 0.00743
T32A T36A | 0.00173
T32A T36C | 0.00204
T32A T36G | 0.00433
T32C | 0.0302
T32C A35C | 0.00582
T32C A35G | 0.00362
T32C A35T | 0.0031
T32C A43C | 0.00725
T32C A43G | 0.0128
T32C A43T | 0.00881
T32C A44C | 0.0116
T32C A44G | 0.0172
T32C A44T | 0.0253
T32C G33A | 0.0169
T32C G33C | 0.0121
T32C G33T | 0.0247
T32C G34A | 0.00321
T32C G34C | 0.00341
T32C G34T | 0.00428
T32C G37A | 0.00241
T32C G37C | 0.00446
T32C G37T | 0.00216

Variant | fraction ligated
T32C G42A | 0.00418
T32C G42C | 0.00351
T32C G42T | 0.0036
T32C T36A | 0.00145
T32C T36C | 0.00318
T32C T36G | 0.00825
T32G | 0.02
T32G A35C | 0.00432
T32G A35G | 0.00546
T32G A35T | 0.00401
T32G A43C | 0.00832
T32G A43G | 0.196
T32G A43T | 0.0529
T32G A44C | 0.067
T32G A44G | 0.0444
T32G A44T | 0.0536
T32G G33A | 0.0116
T32G G33C | 0.00893
T32G G33T | 0.0125
T32G G34A | 0.0029
T32G G34C | 0.00552
T32G G34T | 0.00509

From the supplement of paper PMC6755084
